The source of these data is US20210347873A1 (SHANGHAI PHARMAEXPLORER, published 2021).

Assay [1] has as its target T1, human APRIL protein (human, UniProt O75888 105-250, limits assumed).
T1 construct: Bought protein; also called recombinant APRIL protein
T1 sequence (looked up): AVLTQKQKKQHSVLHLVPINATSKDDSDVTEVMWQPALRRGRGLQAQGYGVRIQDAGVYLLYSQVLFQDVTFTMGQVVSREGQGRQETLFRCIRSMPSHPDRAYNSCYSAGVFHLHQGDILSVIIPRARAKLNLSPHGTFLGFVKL
The experiment in a line: ELISA, coated APRIL; antibody 0.107 nM. A digest of the protocol:
(§1)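 Read-out is A450 after TMB development (5 min, RT) and HCl stop, reporting OD values for BLyS antibodies bound to plate-coated human APRIL (1.0 μg/mL). Antibody and HRP-labelled secondary antibody each incubated 1 h at 37 °C; human IgG served as control.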

In assay [2] the target is T1, human APRIL protein. The experiment in a line: ELISA, coated APRIL; antibody 0.534 nM. A digest of the protocol:
as §1
In general terms: ELISA stands for enzyme-linked immunosorbent assay.

The target in assay [3] is T1, human APRIL protein. In words: ELISA, coated APRIL; antibody 0 nM (blank). A digest of the protocol: as §1
In assay [4] the target is T1, human APRIL protein. In words: ELISA, coated APRIL; antibody 0.0213 nM. A digest of the protocol:
as §1

Assay [5] concerns the target T1, human APRIL protein. In words: ELISA, coated APRIL; antibody 13.3 nM. Summed up: as §1
The target in assay [6] is T2, human BLyS (full length, arginine to histidine at position 132) on CHO-K1 cells (human, UniProt Q9Y275 1-285).
T2 construct: also called hBLyS; CHO-K1 hBLyS
In words: flow cytometry, CHO-K1 hBLyS cells, antibody 0.107 nM. Background: A flow cytometer gives signals particle by particle.

Assay [7] addresses T3, cynomolgus BLyS (full length, arginine to histidine at position 132) on CHO-K1 cells (cynomolgus, UniProt Q9Y275 1-285 (human entry)).
T3 construct: also called cyno BLyS; CHO-K1 cynoBLyS
T3 chain: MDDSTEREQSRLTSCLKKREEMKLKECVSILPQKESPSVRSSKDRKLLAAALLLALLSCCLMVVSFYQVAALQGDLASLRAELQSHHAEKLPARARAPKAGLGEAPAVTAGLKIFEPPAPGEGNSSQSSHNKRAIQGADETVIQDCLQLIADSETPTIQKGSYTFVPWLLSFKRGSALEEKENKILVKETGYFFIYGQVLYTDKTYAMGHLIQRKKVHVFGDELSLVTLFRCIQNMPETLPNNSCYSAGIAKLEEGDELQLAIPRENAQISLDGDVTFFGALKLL
In words: flow cytometry, CHO-K1 cynoBLyS cells, antibody 2.67 nM.

Assay [8] addresses T3, cynomolgus BLyS (full length, arginine …). In words: flow cytometry, CHO-K1 cynoBLyS cells, antibody 0.107 nM.
Assay [9] has as its target T2, human BLyS (full length, arginine to …). The experiment in a line: flow cytometry, CHO-K1 hBLyS cells, antibody 66.7 nM.
Assay [10] addresses T3, cynomolgus BLyS (full length, arginine …). The experiment in a line: flow cytometry, CHO-K1 cynoBLyS cells, antibody 0 nM.
In assay [11] the target is T2, human BLyS (full length, arginine to …). The experiment in a line: flow cytometry, CHO-K1 hBLyS cells, antibody 2.67 nM.
For assay [12] the target is unchanged. The experiment in a line: flow cytometry, CHO-K1 hBLyS cells, antibody 0.0213 nM.
Assay [13] has the same target. In words: flow cytometry, CHO-K1 hBLyS cells, antibody 0.534 nM.

T2 sequence (Q9Y275 whole entry R130H): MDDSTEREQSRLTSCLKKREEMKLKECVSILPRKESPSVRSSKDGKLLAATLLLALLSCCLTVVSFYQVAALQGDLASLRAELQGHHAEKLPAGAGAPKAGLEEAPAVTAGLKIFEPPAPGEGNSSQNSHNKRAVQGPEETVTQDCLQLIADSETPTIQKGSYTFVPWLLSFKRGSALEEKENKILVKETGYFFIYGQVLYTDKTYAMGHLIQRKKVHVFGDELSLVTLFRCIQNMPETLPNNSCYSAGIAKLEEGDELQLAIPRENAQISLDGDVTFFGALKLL

Regarding hIgG Control (antibody), the OD450 nm with human APRIL protein [1] worked out at 0.0722; in the assay with human APRIL protein [2], 0.0793; with human APRIL protein [3] it was 0.0711; with human APRIL protein [4], 0.0804; in the assay with human APRIL protein [5], 0.226.

For the molecule mIgG Control (antibody), the OD450 nm amounted to 0.0533 in the assay with human APRIL protein [1]; 0.0536 with human APRIL protein [2]; 0.0716 with human APRIL protein [3]; 0.0537 with human APRIL protein [4]; 0.0624 with human APRIL protein [5].

B1: 2-1G11 (antibody, V domains shown)
VH: EVQLVESRGGVVQPGRSLRLSCAASGFTFSSYGMHWVRQAPGKGLEWVAVISYDGSNKYYADSVKGRFTISRDNSKNTLYLQMNSLRAEDAAVYYCARDRVDILTGYSIYGMDVWGQGTTVTVSS
VL: EIVMTQSPATLSLSPGERATLSCRASQSVSSYLAWYQQKPGQAPRLLIYDASKRATGIPARFSGSGSGTDFTLTISSLEPEDFAVYYCQQRSNWPLTFGGGTKVEIK
notes: From a human naive scFv phage library; also called human BLyS antibody 2-1G11
B1: the MFI in assay [6] came to 403 MFI; in assay [7], 1480 MFI; in [8], 816 MFI; in assay [9], 645 MFI; in [10] it was 21.2 MFI; in [11], 627 MFI. Moreover, the MFI in assay [12] was determined as 180 MFI; in assay [13], 591 MFI.

B2: L9G7 (antibody, V domains shown)
VH: QIQLVQSGAEVKKPGASVKVSCKASGYTFTSYGISWVRQAPGQGLEWMGWISAYNGNTNYAQKLQGRVTMTTDTSTSTAYMELRSLRSDDTAVYYCARTYYDILTGYYYYGMDVWGQGTTVTVSS
VL: EIVLTQSPGTLSLSPGERATLSCRTSQSVDTYLAWYQQKPGQAPRLLIYDASNRATGIPARFSGSGSGTDFTLTISSLEPEDFAVYYCQQRSNWPLTFGGGTKVEIK
notes: From a human naive scFv phage library; also called human BLyS antibody L9G7
Take B2: the MFI was 226 MFI in [6]; 1280 MFI in assay [7]; 387 MFI in assay [8]; 697 MFI in assay [9]; 20.6 MFI in assay [10]; 591 MFI in [11]. Also, the MFI in [12] is 93 MFI; in assay [13], 469 MFI.

B3: L9G7 (antibody, human IgG1, V domains shown)
VH: QIQLVQSGAEVKKPGASVKVSCKASGYTFTSYGISWVRQAPGQGLEWMGWISAYNGNTNYAQKLQGRVTMTTDTSTSTAYMELRSLRSDDTAVYYCARTYYDILTGYYYYGMDVWGQGTTVTVSS
VL: EIVLTQSPGTLSLSPGERATLSCRTSQSVDTYLAWYQQKPGQAPRLLIYDASNRATGIPARFSGSGSGTDFTLTISSLEPEDFAVYYCQQRSNWPLTFGGGTKVEIK
For the molecule B3, the OD450 nm came to 0.0861 with human APRIL protein [1]; 0.0741 in the assay with human APRIL protein [2]; 0.0638 in the assay with human APRIL protein [3]; 0.0777 with human APRIL protein [4]; 0.107 with human APRIL protein [5].

B4: 97A3C2H4 (antibody, V domains shown)
VH: EVKLVESGGGLVQPGGSLKLSCAASGFTFSTYTMSWVRQTPEKRLEWVAYISYGGGSTSYPDTVKGRFTISRDNAKNTLYLQMSSLKSEDTAIYYCTRHVTVVENSMDYWGQGTSVTVSS
VL: DILLTQSPDILSVSPGERVSFSCRASQSIGTSIHWYQQRTNGSPRLLIKYVSESFSGTPSRFSGSGSGTAFTLTINSVESEDIADYYCQQTHSWPWTFGGGTKLEIK
notes: Mouse hybridoma monoclonal antibody purified on Protein G
As for B4, the MFI in assay [6] was 158 MFI; in assay [7] it was 956 MFI; in assay [8] it was 243 MFI; in [9], 525 MFI; in [10] it was 20 MFI; in assay [11] it was 448 MFI. Moreover, the MFI in assay [12] worked out at 69.8 MFI; in [13], 340 MFI.

B5: 97A3C2H4 (antibody, V domains shown)
VH: EVKLVESGGGLVQPGGSLKLSCAASGFTFSTYTMSWVRQTPEKRLEWVAYISYGGGSTSYPDTVKGRFTISRDNAKNTLYLQMSSLKSEDTAIYYCTRHVTVVENSMDYWGQGTSVTVSS
VL: DILLTQSPDILSVSPGERVSFSCRASQSIGTSIHWYQQRTNGSPRLLIKYVSESFSGTPSRFSGSGSGTAFTLTINSVESEDIADYYCQQTHSWPWTFGGGTKLEIK
notes: Mouse hybridoma antibody purified on Protein G
For the molecule B5, the OD450 nm with human APRIL protein [1] came out at 0.0561; with human APRIL protein [2] it was 0.059; with human APRIL protein [3] it was 0.0566; with human APRIL protein [4], 0.0559; in the assay with human APRIL protein [5], 0.0848.

B6: L1D12 (antibody, human IgG1, V domains shown)
VH: QVQLVQSGGGLVQPGGSLRLSCAASGFTVSSNYMSWVRQAPGKGLEWVSVIYSGGSTYYADSVKGRFTISRDNSKNTLYLQMNSLRAEDTAVYYCARGFHDILTGYGMDVWGQGTTVTVSS
VL: SSELTQDPAVSVALGQTVRITCQGDSLRNYYAGWYQQKPGQAPVLVIYGKNNRPSGIPDRFSGSSSGNTASLTITGTQAEDEADYYCSSRDNSGTHLVEFGGGTKLTVL
notes: also called LID12
With B6, the OD450 nm in the assay with human APRIL protein [1] was found to be 0.0678; in the assay with human APRIL protein [2] it was 0.0757; with human APRIL protein [3], 0.0625; in the assay with human APRIL protein [4], 0.0854; with human APRIL protein [5] it was 0.124.

B7: 8E7D9C7F5 (antibody, V domains shown)
VH: QVQLQQSGVELARPGASVKLSCKASGYTFTSYGISWVKQRTGQALEWIGEIYPRSGNTYYNEKFKGKATLTADKSSSTAYMELRSLTSEDSAVYFCARSGPITTLVATDYGMDYWGQGTSVTVSS
VL: DIVLTQSPASLAVSLGQRATISCRASKSVSTSSYSYMHWYQQKPGQPPKLLIKFASNLESGVPARFSGSGSGTDFTLNIHPVEEEDAATYYCQHSREFPYTFGGGTKLEIK
notes: as for B4
For the molecule B7, the MFI in assay [6] is 282 MFI; in [7], 1130 MFI; in assay [8] it was 477 MFI; in assay [9] it was 596 MFI; in assay [10], 19.8 MFI; in [11], 532 MFI. Also, the values for the MFI in assay [12] and in [13] were 122 MFI and 504 MFI, respectively.

B8: 111D10D6G3 (antibody, V domains shown)
VH: QVQLQQPGAELVKPGASVKMSCKASGYTFTRHWITWVKQRPGQGLEWIGDIFPGSGSINYNEKFKSEATLTVEKSSSTAYMQLSSLTSEDSAVYYCARGDVDVWGTGTTVTVSS
VL: DIQMTQSPSSLSASLGERVSLTCRASQEIRGYLSWLQQKPNGTIKRLIYAASTLDSGVPKRFSATRSGSDFSLTISSLESEDFADYYCLQYASYPFTFGSGTKLEIK
notes: as for B4
In the case of B8, the MFI in assay [6] worked out at 150 MFI; in assay [7], 510 MFI; in assay [8], 222 MFI; in assay [9], 296 MFI; in [10] it was 20.4 MFI; in assay [11], 265 MFI. Besides, the MFI in [12] came out at 65.5 MFI; in assay [13] it was 247 MFI.

B9: 111D10D6G3 (antibody, V domains shown)
VH: QVQLQQPGAELVKPGASVKMSCKASGYTFTRHWITWVKQRPGQGLEWIGDIFPGSGSINYNEKFKSEATLTVEKSSSTAYMQLSSLTSEDSAVYYCARGDVDVWGTGTTVTVSS
VL: DIQMTQSPSSLSASLGERVSLTCRASQEIRGYLSWLQQKPNGTIKRLIYAASTLDSGVPKRFSATRSGSDFSLTISSLESEDFADYYCLQYASYPFTFGSGTKLEIK
notes: as for B5
On to B9, for which the OD450 nm with human APRIL protein [1] was 0.0536; in the assay with human APRIL protein [2], 0.0525; with human APRIL protein [3], 0.0547; with human APRIL protein [4], 0.0549; with human APRIL protein [5], 0.0573.
